From publication PMC3096069 (Journal of molecular biology, 2011)
One block for each molecule: values may come before it.

B1: mSin3A PAH2 (mammalian Sin3A PAH2 domain, residues 295-385) (domain or fragment, UniProt Q60520 295-385, looked up)
chain: SLQNNQPVEFNHAINYVNKIKNRFQGQPDIYKAFLEILHTYQKEQRNAKEAGGNYTPALTEQEVYAQVARLFKNQEDLLSEFGQFLPDANS
B2: Pf1 200-241 (human Pf1 residues 200-241, wild type) (domain or fragment, UniProt Q96QT6 200-241, looked up)
chain: DYVQPQLRRPFELLIAAAMERNPTQFQLPNELTCTTALPGSS
B3: Pf1 200-241 Phe225Ala (domain or fragment, human, UniProt Q96QT6 200-241, looked up)
chain: DYVQPQLRRPFELLIAAAMERNPTQAQLPNELTCTTALPGSS
B4: Pf1 200-241 Leu212Ala (domain or fragment, human, UniProt Q96QT6 200-241, looked up)
chain: DYVQPQLRRPFEALIAAAMERNPTQFQLPNELTCTTALPGSS
B5: Pf1 200-241 Asn221Glu (domain or fragment, human, UniProt Q96QT6 200-241, looked up)
chain: DYVQPQLRRPFELLIAAAMEREPTQFQLPNELTCTTALPGSS

What was measured:
[1] = target: mSin3A PAH2 (Mus musculus) (UniProt Q60520); details: cited from earlier work
[2] = target: Pf1 200-241 (human Pf1 residues 200-241, wild type) (human) (UniProt Q96QT6); assay: ITC
[3] = target: B4; assay: ITC
[4] = target: B2; assay: ITC
[5] = target: B3; assay: ITC
[6] = target: B5; assay: ITC
[7] = target: B1; assay: ITC
[8] = target: MRG15 MRG (human MRG15 MRG domain, residues 155-323) (human, UniProt Q9UBU8-2 155-323); assay: ITC
Chain of MRG15 MRG (human MRG15 MRG domain, residues 155-323) (Q9UBU8 194-362): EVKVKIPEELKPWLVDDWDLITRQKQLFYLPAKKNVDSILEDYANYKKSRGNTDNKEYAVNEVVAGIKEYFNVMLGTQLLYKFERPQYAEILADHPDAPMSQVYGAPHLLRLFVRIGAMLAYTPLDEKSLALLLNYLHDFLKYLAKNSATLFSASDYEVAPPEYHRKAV

Chain of mSin3A PAH2 (Mus musculus) (Q60520 297-386): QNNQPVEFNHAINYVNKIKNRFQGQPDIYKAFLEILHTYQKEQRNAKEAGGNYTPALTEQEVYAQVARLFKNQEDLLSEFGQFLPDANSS

Molecule: Mad1/Mxd1 (from UniProt Q05195)
- Kd [1]: 50 nM

- Kd [2]: 2930 nM
- dH [2]: -9.64 kcal/mol
- stoichiometry N [2]: 1.02
Molecule: mSin3B PAH2 (mammalian Sin3B PAH2 domain) (domain or fragment)

Molecule: B1
- dH [3]: -4.31 ± 0.49 kcal/mol
- stoichiometry N [3]: 1 ± 0.11
- dH [4]: -6.58 ± 0.48 kcal/mol
- stoichiometry N [4]: 0.99 ± 0.05
- dH [5]: -4.97 kcal/mol
- stoichiometry N [5]: 1.12
- dH [6]: -7.67 ± 0.43 kcal/mol
- stoichiometry N [6]: 1.16 ± 0.08

Molecule: B2
- Kd [7]: 2150 ± 450 nM
- Kd [8]: 15 ± 3 nM
- dH [8]: -13.1 ± 0.4 kcal/mol
- stoichiometry N [8]: 0.82 ± 0.08

Molecule: B3
- Kd [7]: 1650 nM

Molecule: B4
- Kd [7]: 2660 ± 460 nM

Molecule: B5
- Kd [7]: 630 ± 50 nM
